Experimental data taken from the DeepSol protein solubility set.

Assay: soluble on expression in E. coli; label from the status in PepcDB or PDB records

| Sequence | soluble on expression in E. coli |
| --- | --- |
| SADLLALLRDFTIHNREIKEDGDDIIFDNYAWNKSSKTNYIVWGTDKHGLIKEYYPLESIVYFLKNINLSHAQFVRQAAANGIFGIRLPDRQKLLDYLQGKITTCEAIDHSVPVDISQRRLVILQNNDKDPNDATGEPSSKRLCLEDGNSIDMANEGHSTDQQNEINLKESQRLAAKLQLPPGGKMTSDLYQNDPSKASTLIEHIPVDKIQMLRAKFRANHQQTIKPDESDVVPDKGKPLKSAIDAEEPIKPFVSKIQLGVTKNFVKEIMAREYTWRTRTTVLESHGKQFFDSVVLGTLKSVKLKEENLQHHTQRIGPHTPFPASNGHAGNVQQPAQAPTHYSRYDQERFTGAGQDTAGFKIDTMGTYHGKGLSSMMTDGSQANLTSRDPRANRQPAPRGLPPVSPGATPVDTGKGVTKANRAKSRVPIIIIPAAPTSLITMYNAKEILQDLRFEKTEDKKANGCRRDNDLLIQRLKSDGRTVPYRVIDQPNKLNREDWDRVVAVFVQGPAWQFKNWPIGSDPVEIFSLVKAFHLKYAHMPLHPDVKKWNVHVIQLDDHRHLDKANFQQIWDILDRHMV | soluble |
| EKMTRDEIEYMLTNSEETLEAEEIEMLQGIFSLDEMMAREVMVPRTDAFMIDINNDAQSNIEGILSQNFSRVPVFDDDKDRVVGVLHTKRLLEAGFKTGFDTIDLRKILQEPLFVPETIFVDDLLKALRNTQNQMAILLDEYGGVAGLVTLEDLLEEIVGEID | soluble |
| MGSDKIHHHHHHMPLPRGSSLVRIPGNIPVGLDMKERLAYFEYDPLVSGQRAYAVAALLPQGFTRTLLPACVGSSGEALLPLLGYAAVGLKEGKIYVAAVQSDEHRKWHPHYYNTERLPAKINRMLKKYPGNMILHQLARCSLEYGCFTAQNIFYQRWEGGIPSMKACNAACIACISEDHCGTASPQNRLDFAPTVQEIVEVASEHLLRARDAIISFGQGCEGEPALNGKRLSQAIRRIRDLCAQGTINMNTNAGYCEGVKLMTDAGMDSMRVTIFSAIEENYMTYHCPQDYSLADVEYSITYAREHGVKISLNLLTFPGFTDRMEEVEALLEFVRKNQVDMIQFRNLNIDPEFLMRIFPGKSPVLGISNFVKLLESELPGVRIGSYTHPVHR | not soluble |
| MSLSIYQASIPTFLRTLGNLSAILKKAAAHAEAKNIDPRIFIDARLAPDMFPLARQVQIASDAAKGAGARLAGLEVPSYADTETTFDELQARIARTVEFLEGIREEQLDGAEERNVTLKVRGQEISFNGRDFLFGFALPNFFFHVTTAYAILRHNGVELGKMDFLGGA | not soluble |
| DIQMTQSPASLSASVGETVTITCRASGNIHNYLAWYQQKQGKSPQLLVYYTTTLADGVPSRFSGSGSGTQYSLKINSLQPEDFGSYYCQHFWSTPRTFGGGTKLEIKRADAAPTVSIFPPSSEQLTSGGASVVCFLNNFYPKDINVKWKIDGSERQNGVLNSWTDQDSKDSTYSMSSTLTLTKDEYERHNSYTCEATHKTSTSPIVKSFNRNEC | soluble |
| MKRRKQSRRWRGKKYAPVMIGMLVLLMNLADLKISNLISGSIICQAAERQSENTETENNSGGTEKEKITQTEASTVSDILEELDLSRVQRMLDQMLGEESFSMKDMLDGLIKGEKVLSEDTVQEMVHSFLFSGLEKEKS | not soluble |
| MATQTAVTATTVPQGSPSVTGSASQGGILNSARQFFSLAAPKVEKDKEFSFRFLTSPLRSKPAATVNADNFYMYACGSINMP | not soluble |
| MSLSLMLTVETRQAVNPDYAKTLDTEGLRRHFLANDMFRSGEIRLIYTHYDRFVMGGAVPNGAPLTLDKVEETKTPSFLDRREMGIVNIGETGTVSAGDETYTLNRGDVLYLGAGSRAVTFDGAGRFYITSCPAHRSLPAKLVSLADSKEVKLGATETSNKRTINQFIHPLVMESCQLVLGYTMLEDGSVWNTIPSHIHDRRMEAYLYFGMDEKSRVLHLMGEPQETRHLFISNEEGAISPPWSIHSGAGIGSYTFIWAMAGDNVDYTDMDFIQPGDLKEGHHHHHH | soluble |
| MAAETKVQVSDPEAEFLNSKQETGYEWELFKENVRPLKRGRNVGILNHALKSHSDHQLRKNLIEKRRNLIEAIDEYEGDDPLSPWIECIKWVQEAFPPGGECSGLLVIYEQCVRKFWHSERYKDDLRYLKVWLEYAEHCADAEVIYKFLEVNEIGKTHAVYYIAYALHIEFKNKVKTANEIFNLGISRDAKPVEKLNDAYKKFMVRTMRRSNTADEEPKENNDLPSRSFGTLLSRGDNNARRQALGSSNPQAKKLKPNQSSKTPFAIYADAVSDTTSGNQPESDKSRPEFGSWLMLGGRAERNKENNSLPRKWASFKVPQKPIVRTVAAASASTFEVFVDEEECTEEEEEKKKNDETISSSSNVLPLNGGREIKKETELLRQNPLRHFPPNSFLR | not soluble |
| SATALSEEELDNEDYYSLLNVRREASSEELKAAYRRLCMLYHPDKHRDPELKSQAERLFNLVHQAYEVLSDPQTRAIYDIYGKRGLEMEGWEVVERRRTPAEIREEFERLQREREERRLQQRTNPKGTISVGVDATDLFDRYDEEYEDVSGSSFPQIEINKMHISQSIEAPLTATDTAILSGSLSTQNGNGGGSINFALRRVTSAKGWGELEFGAGDLQGPLFGLKLFRNLTPRCFVTTNCALQFSSRGIRPGLTTVLARNLDKNTVGYLQWRWGIQSAMNTSIVRDTKTSHFTVALQLGIPHSFALISYQHKFQDDDQTRVKGSLKAGFFGTVVEYGAERKISRHSVLGAAVSVGVPQGVSLKVKELEKQRESAATDVLQKKQEAESAVRLMQESVRRIIEAEESRMGLIIVNAWYGKFVNDKSRKSEKVKVIDVTVPLQCLVKDSKLILTEASKAGLPGFYDPCVGEEKNLKVLYQFRGVLHQVMVLDSEALRIPKQSHRIDTDG | soluble |
| SYHPLLSSSAKASADGFKPLPAIELLDRASESPTTVEIAATTTSDSCSDGARSRFQRLKVVLDLDETLVCAYETSSLPAALRNQAIEAGLKWFELECLSTDKEYDGKPKINYVTVFERPGLHEFLEQLSEFADLILFTAGLEGYARPLVDRIDTRKVLTNRLYRPSTVSTQYRDHVKDLLSTSKNMCRTVIVDNNPFSFLLQPSNGIPCIAFSAGQPNDTQLLDVILPLLKQLSEEDDVRPTLYDRFRMPEWFEKQGIPPSCWKP | soluble |
| MGSDKIHHHHHHMNLSNDSLNKSDISPAVAQQAVGWLLEMQEGALDARRQHAWQSWLNGNSEHQRAWAHMQRVNQRLSGLSSPLAHAALGAPKSAGRRHALKLLLLLGAGSMAGWSLREQIALQPLLADYNSGVGEQRKVALSDGSRVQLNTASAVDVRFDAQQRLIKLLQGELLMSASADARPLNLLSAQGTVRASTGSSRFNLRQLDGRTQLAVFAGAIEVAPANKSGPGLMLRASQQVTFGRDAWDSVRTVDANSGAWADGMLVASRMKLSDFLAELGRYRRGRLNCDANVADLLISGSYPLADSERILDMLQLALPVRVQRFTRYWVNVQARV | not soluble |
| MTDVALSQDVSRFLRYLGVERQLSPITLLNYQRQLDAIIALAGETGLKSWQQCDAAIVRSFAVRSRRKGLGPASLALRLSALRSFFDWLVSQGELKANPAKGVSAPKAPRHLPKNIDVDDVNRLLDIDLNDPLAVRDRAMLEVMYGAGLRLSELVGLDIKHLDLDTGEVWVMGKGSKERRLPIGRNAVTWIEHWLDLRGLFASDEEALFLSKLGKRISARNVQKRFAEWGIKQGLNSHVHPHKLRHSFATHMLESSGDLRGVQELLGHANLSTTQIYTHLDFQHLASVYDAAHPRAKRGK | not soluble |
| DRFSTAVLALSLFQGAYTAEIFRAGLNSIPKGQFEAAQTLGLSPFYTYKDVILPQVLQRTLPPLTNEVVSLIKNSSIVSVMAIFDLTTQARNIVSETAMPFE | not soluble |
| KNYDLIFGDSNTKKYYAQFAKEHKTHLYHQILQSNDEQFRFVENDQTVTSQTPFKS | not soluble |
| MGSDKIHHHHHHENLYFQGMSRKVILTCAVTGNAPFNPKHPSMPITPAQIADACVEAAKAGASVAHIHVRDPKTGGGSRDPVLFKEVVDRVRSSGTDIVLNLTCGLGAFLLPDPEDESKALPESDVVPVAERVKHLEDCLPEIASLDITTGNQVEGKLEFVYLNTTRTLRAMARRFQELGIKPELEVFSPGDILFGKQLIEEGLIDGVPLFQMVLGVLWGAPASTETMIYQRNLIPANAQWAAFGIGRDQMPMMAQAALLGGNVRVGLEDNLYLSRGVFATNGQLVERARTVIEHLGMSVATPDEARDIMGLSRPA | soluble |
| MVIINTAAYHFVSITQPQTLADQIRAHGEIAGLKGTVLIANEGINLFLAGEKEAINAFYAWLCADVRFAALHVKYSVSAYKPFARFKVKVRPEIISFRRGDISPLQVRAPGVSAHTLRDWLRRGCDDNGRRLVMLDARNQQEIAYGTFSGAMTLPITKFTGFPGALAHYRDLLSDATVVSFCTGGIRCEKAVLWMRADGMDNVLQLEGGILGYFEQVGGEGYDGRCFVFDKRVALDPQLRPLYDMRVVASFARSEISLEHHHHHH | not soluble |
| MTQETFTATTRVKRGLADMLKGGVIMDVVTPEQARIAEDAGASAVMALERVPADIRAQGGVARMSDPDLIEGIVNAVSIPVMAKARIGHFVEAQILESLGVDFIDESEVLSPADYVNHIDKWNFDVPFVCGATNLGEALRRITEGAAMIRSKGEAGTGDVSEAVKHLRTIRGEINRLRSMDEDQLYVAAKEIQAPYDLVREVAATGKLPVTLFVAGGVATPADAALVMQMGAEGVFVGSGIFKSGNPAARAAAIVKATTMYDDPAAIAEVSRGLGEAMVGINVADVPAPHRLAERGW | not soluble |
| SAENHCELLPPAPSGLGAGLGGGLCRRCSAGMGALAQRPGGVSKWVRLNVGGTYFLTTRQTLCRDPKSFLYRLCQADPDLDSDKDETGAYLIDRDPTYFGPVLNYLRHGKLVINKDLAEEGVLEEAEFYNITSLIKLVKDKIRERDSRISQMPVKHVYRVLQCQEEELTQMVSTMSDGWKFEQLVSIGSSYNYGNEDQAEFLCVVSKELHNTPYGTTSEPSEKAKILQERGSRM | soluble |
| DSDCHFAEQRDFSSQWFRVDDGGEIPDEQELHWHLEYLQQNPNAARDLLHALLPDKDASQGDWRCSYRLLQSADLMPLVFDYRWLMNGQFAFYLVDSASQENGGVATTLLVRALFDDYLRNLKSFSADLKDMVNIMEKGIECSDCAGAVK | not soluble |
| MTFRGPSPPRFGHSMDLPAYAIEAEGLYKTYAGTKTSPEKRALNGIDLKIPRGSIFGLLGPNGAGKSTFINILAGLVRKSSGTVRIWGRDIDQRPRDARAAIGVVPQELAADVFFTPRESLEVQAGFYGVPKSERRTDELLNALGLGDKAGAYVRQLSGGMKRRLMVAKAMVHQPPVLILDEPTAGVDVELRRQLWQYVTSLNELGVTIVLTTHYLEEAQELCDEIAIINRGEVVACEPTAKLLSRMDSRNVVVTPESPVTAAPVLEGFDTKLRSGGAFSVSYRTGQSSVEQVLAAVRASGLHIKDIATEDPDLEDVFVALTYGDPNAADPTKDLEHHHHHH | not soluble |
| MGSDKIHHHHHHMREISMDWNDLRFFLEVARTSSLTKTAIKLKVSQSTVSRRIGALESSLKTRLFLHHQTGYFLTDVGKEVLKYAEDVEGKVGTLEKKISGRDLAPAGIVRLATAVTLANHLIIPQLPRFMACYPEIILELVTGVNTVSVVRNDADIALRLVRPEQNSLKIRKVGVVASAVYGSETYVREHPAPEDNPIIGRSFITWDKSFSHLPSARWLNEHFPDMTSTLALTSLVTQIAAANAGLGLAVLPCFIAAQNSDLVEVIHTQRVFSEDLWLVSHTDLIASSRIRVVADFLMEIIAEAHLA | not soluble |
